The source of these data is patent publication US20230313180A1.

Assay [1] deals with SARS-CoV-2-RBD tagged with a C-terminal Fc tag (ACRO Biosystems) (SARS-CoV-2) (UniProt P0DTC2). As to the kind of experiment: BLI, immobilized SARS-CoV-2 RBD. A general note: BLI is a label-free optical method that tracks binding on a fibre tip over time.
Assay [2] has the same target.
The target in assay [3] is T1, SARS-CoV-2-RBD tagged with a C-terminal Fc tag (ACRO Biosystems) (SARS-CoV-2), P0DTC2.
In assay [4] the target is T1, SARS-CoV-2-RBD tagged with a C-terminal …. As to the kind of experiment: BLI, immobilized SARS-CoV-2 RBD; reference Nb1-Nb1 genetic dimer.
Assay [5] shares this target. The assay is described as follows: BLI, immobilized SARS-CoV-2 RBD; reference (Nb1N)2.
Assay [6] has the same target. This is another data set of the same source.

Like-named read-outs stand apart in the source and are kept apart here.

Turning to “Nb1-Nb1, genetically linked "tail to head" dimer of Nb1 (VHH72)”, the Kd (as a rule, a measure of binding affinity in units of concentration) in assay [1] turned out to be 88 nM. Also, in assay [2], the Kd came to 89 nM; the koff (usually the first-order rate constant of dissociation) stood at 0.00314 s⁻¹; the kon (as a rule, the second-order rate constant of association) is 35400 M⁻¹ s⁻¹.

B1: (Nb1N)3, homotrimer of Nb1 (VHH72) with Tet3.0 at the N-terminal position, joined by the 3-armed Tri-sTCO PEG linker (VHH)
VHH: SGTGSQVQLQESGGGLVQAGGSLRLSCAASGRTFSEYAMGWFRQAPGKEREFVATISWSGGSTYYTDSVKGRFTISRDNAKNTVYLQMNSLKPDDTAVYYCAAAGLGTVVSEWDYDYYLDYWGQGTQVTVSS
modifications: not checked
In assay [3], B1 registered a Kd of 2.31 nM, an off-rate (koff) of 0.000566 s⁻¹ and a kon of 246000 M⁻¹ s⁻¹. Besides, the fold tighter KD than the genetic dimer Nb1-Nb1 in assay [4] was found to be 44 fold. In assay [5], this molecule registered a fold larger kon than (Nb1N)2 of 3 fold, a fold smaller koff than (Nb1N)2 of 2 fold and a fold tighter KD than (Nb1N)2 of 6 fold.

B2: (Nb1N)2, homodimer of Nb1 (VHH72) with Tet3.0 at the N-terminal position, joined by the 2-headed sTCO (PEG)12 linker (VHH)
VHH: B1 VHH
modifications: not checked
Regarding B2, in assay [6], the equilibrium dissociation constant (Kd) amounted to 13.8 nM, the koff was 0.00119 s⁻¹ and the kon was found to be 85800 M⁻¹ s⁻¹. In assay [4], this molecule registered a fold tighter binding than Nb1-Nb1 of 7 fold.

B3: (Nb142)2, homodimer of Nb1 (VHH72) with Tet3.0 at framework position Gly42, joined by the 2-headed sTCO (PEG)12 linker (VHH)
VHH: QVQLQESGGGLVQAGGSLRLSCAASGRTFSEYAMGWFRQAPGKEREFVATISWSGGSTYYTDSVKGRFTISRDNAKNTVYLQMNSLKPDDTAVYYCAAAGLGTVVSEWDYDYYLDYWGQGTQVTVSS
modifications: not checked
In assay [6], B3 came in with a Kd of 27.5 nM, an off-rate constant (koff) of 0.00201 s⁻¹ and a kon of 73100 M⁻¹ s⁻¹. Besides, the fold tighter binding than Nb1-Nb1 in assay [4] was found to be 3 fold.

B4: (Nb113)2, homodimer of Nb1 (VHH72) with Tet3.0 at framework position Gln13, joined by the 2-headed sTCO (PEG)12 linker (VHH)
VHH: B3 VHH
modifications: not checked
On to B4, for which, in assay [6], the Kd was 46 nM, the koff was 0.00156 s⁻¹ and the kon worked out at 33800 M⁻¹ s⁻¹.

B5: (Nb1C)2, homodimer of Nb1 (VHH72) with Tet3.0 at the C-terminus, joined by the 2-headed sTCO (PEG)12 linker (VHH)
VHH: B3 VHH
modifications: not checked
In assay [6], B5 returned a Kd of 132 nM, a koff of 0.0064 s⁻¹ and a kon of 48100 M⁻¹ s⁻¹. The molecule also displayed a fold weaker binding than Nb1-Nb1 in assay [4] of 1.5 fold.
